This is an account of results in US20180305450A1 (AstraZeneca / MedImmune, published 2018).

The term IC50 denotes the midpoint of a concentration-inhibition curve.

Experiment [1] deals with T1, recombinant biotinylated human PAR2 extracellular domain (residues 1-75), N-terminal AviTag, C-terminal Flag … (human, UniProt P55085 26-75, biotin on the AviTag (enzymatic biotinylation)).
T1 construct: also called Bio-human-PAR2 ECD; human PAR2 ECD; not shown: N-terminal AviTag (Avidity LLC); C-terminal Flag and poly Histidine tags
Description: HTRF competition with Dylight650-Par0067 IgG, IgG. The method, then:
(§1) Parent Par0067 IgG (used as a reference/control in all assays) was pre-diluted to give a 2000 nM stock in each of the two different pH assay buffers (in order to give a top final assay IgG concentration of 500 nM). All test, or other reference/control IgG were tested from a top final assay concentration of ¼ of the neat undiluted sample (i.e. no pre-dilution step was performed). Duplicate 11 point 1:3 serial dilutions then were prepared on 384 well polypropylene Greiner plates in each of the two assay buffers (pH 7.4 & 6.0). 5 μl per well was transferred from the relevant pH IgG dilution plate to the corresponding assay plate (pH 7.4 and pH 6.0). 5 ul of the appropriate pH assay buffer was added to the total and non-specific wells.
(§2) For multipoint dose response curves % Specific Binding values were plotted versus test purified antibody concentration (scFv or IgG). IC₅₀ values were determined via a sigmoidal dose response inhibition variable slope curve fit (4 parameter logistic equation) using Graphpad Prism Software.
In general terms: In TR-FRET formats the signal depends on donor and acceptor labels being close together.

Experiment [2] deals with T1, recombinant biotinylated human PAR2 …. Description: HTRF competition with Dylight650-Par0067 IgG, pH 6.0, IgG. The method, then: as §1, §2
The target is the same in experiment [3]. As to the kind of experiment: HTRF competition with Dylight650-Par0067 IgG, pH 7.4, IgG. The method, then: as §1, §2

T1 sequence (P55085 26-75): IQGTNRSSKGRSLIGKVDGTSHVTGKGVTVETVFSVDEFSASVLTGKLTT

B1: PaB670141 IgG (antibody, V domains shown)
VH: EVQLLESGGGLVQPGGSLRLSCAASGFTFSSYAMNWVRQAPGKGLEWVSTISYSGSLISYADSVKGRFTISRDNSKNTLYLQMNSLRAEDTAVYYCARINHDPMDVWGQGTLVTVSS
VL: SIELTQPPSVSVSPGQTASITCSGDNLGKKYVQWYQQKPGQSPVLVIYDDSNRPSGIPERFSGSNSGNTATLTISGTQAMDEADYYCQTWDGNPTHGETNVFGGGTKLTVL
notes: IgG1-TM (L234F, L235E, P331S), human lambda light chain
Take B1: the “Fold IC50 (pH 6.0 v pH 7.4)” value in experiment [1] worked out at 5.9 fold. Besides, the “Fold IC50 pH 7.4 (Variant v Par0067)” value in experiment [1] was determined as 2.8 fold. The IC50 in experiment [2] was found to be 13.9 nM; in experiment [3], 2.4 nM.

B2: PaB670148 IgG (antibody, V domains shown)
VH: EVQLLESGGGLVQPGGSLRLSCAASGFTFSSYAMNWVRQAPGKGLEWVSTISYHGHHISYADSHHHRFTISRDNSKNTLYLQMNSLRAEDTAVYYCARINNDPMDVWGQGTLVTVSS
VL: SIELTQPPSVSVSPGQTASITCSGDNLGKKYVQWYQQKPGQSPVLVIYDDSNRPSGIPERFSGSNSGNTATLTISGTQAMDEADYYCHTWHHHPTHGEHNVFGGGTKLTVL
notes: as for B1
In the case of B2, the “Fold IC50 (pH 6.0 v pH 7.4)” value in experiment [1] stood at 17.4 fold. Further, in experiment [1], the “Fold IC50 pH 7.4 (Variant v Par0067)” value was 58.1 fold. In addition, the figures for the IC50 in experiment [2] and in experiment [3] were 845 nM and 48.5 nM, respectively.

B3: PaB670160 IgG (antibody, V domains shown)
VH: EVQLLESGGGLVQPGGSLRLSCAASGFTFSSYAMNWVRQAPGKGLEWVSTISYSGSLISYADSVKGRFTISRDNSKNTLYLQMNSLRAEDTAVYYCARINHDPMDVWGQGTLVTVSS
VL: SIELTQPPSVSVSPGQTASITCSGDNLGKKYVQWYQQKPGQSPVLVIYDDSNRPSGIPERFSGSNSGNTATLTISGTQAMDEADYYCHTWDGHHTTGETNHFGGGTKLTVL
notes: as for B1
On to B3, for which, in experiment [1], the “Fold IC50 (pH 6.0 v pH 7.4)” value was 37.5 fold and the “Fold IC50 pH 7.4 (Variant v Par0067)” value was found to be 20.2 fold. For the same molecule, the IC50 in experiment [2] was 634 nM. Further, the IC50 in experiment [3] was found to be 16.9 nM.

B4: PaB670156 IgG (antibody, V domains shown)
VH: EVQLLESGGGLVQPGGSLRLSCAASGFTFSSYAMNWVRQAPGKGLEWVSTISYSGSLISYADSVKGRFTISRDNSKNTLYLQMNSLRAEDTAVYYCARINHDPMDVWGQGTLVTVSS
VL: SIELTQPPSVSVSPGQTASITCSGDNLGKKYVQWYQQKPGQSPVLVIYDDSNRPSGIPERFSGSNSGNTATLTISGTQAMDEADYYCQTWDGHHHTGETNHFGGGTKLTVL
notes: as for B1
Regarding B4, in experiment [1], the “Fold IC50 (pH 6.0 v pH 7.4)” value was determined as 27.2 fold and the “Fold IC50 pH 7.4 (Variant v Par0067)” value was found to be 8.4 fold. In addition, the IC50 in experiment [2] was determined as 190 nM. In addition, the IC50 in experiment [3] came to 7 nM.

B5: PaB670153 IgG (antibody, V domains shown)
VH: EVQLLESGGGLVQPGGSLRLSCAASGFTFSSYAMNWVRQAPGKGLEWVSTISYHGHHISYADSHHHRFTISRDNSKNTLYLQMNSLRAEDTAVYYCARINNDPMDVWGQGTLVTVSS
VL: SIELTQPPSVSVSPGQTASITCSGDNLGKKYVQWYQQKPGQSPVLVIYDDSNRPSGIPERFSGSNSGNTATLTISGTQAMDEADYYCHTWDHHHTTGEHNVFGGGTKLTVL
notes: as for B1
Regarding B5, in experiment [1], the “Fold IC50 (pH 6.0 v pH 7.4)” value stood at 17.6 fold and the “Fold IC50 pH 7.4 (Variant v Par0067)” value is 111 fold. For the same molecule, in experiment [2], the IC50 turned out to be 1640 nM. Further, the IC50 in experiment [3] was 93 nM.

B6: PaB670146 IgG (antibody, V domains shown)
VH: EVQLLESGGGLVQPGGSLRLSCAASGFTFSSYAMNWVRQAPGKGLEWVSTISYSGSLISYADSVKGRFTISRDNSKNTLYLQMNSLRAEDTAVYYCARINHDPMDVWGQGTLVTVSS
VL: SIELTQPPSVSVSPGQTASITCSGDNLGKKYVQWYQQKPGQSPVLVIYDDSNRPSGIPERFSGSNSGNTATLTISGTQAMDEADYYCHTWHHHPTHGEHNVFGGGTKLTVL
notes: as for B1
For B6, in experiment [1], the “Fold IC50 (pH 6.0 v pH 7.4)” value came out at 8.5 fold and the “Fold IC50 pH 7.4 (Variant v Par0067)” value was 110 fold. Further, the IC50 in experiment [2] is 784 nM. The IC50 in experiment [3] turned out to be 91.9 nM.

B7: PaB670151 IgG (antibody, V domains shown)
VH: EVQLLESGGGLVQPGGSLRLSCAASGFTFSSYAMNWVRQAPGKGLEWVSTISYSGSLISYADSVKGRFTISRDNSKNTLYLQMNSLRAEDTAVYYCARINHDPMDVWGQGTLVTVSS
VL: SIELTQPPSVSVSPGQTASITCSGDNLGKKYVQWYQQKPGQSPVLVIYDDSNRPSGIPERFSGSNSGNTATLTISGTQAMDEADYYCHTWDHHHTTGEHNVFGGGTKLTVL
notes: as for B1
Take B7: in experiment [1], the “Fold IC50 (pH 6.0 v pH 7.4)” value is 11.5 fold and the “Fold IC50 pH 7.4 (Variant v Par0067)” value was found to be 83.2 fold. The IC50 in experiment [2] came to 796 nM. Moreover, the IC50 in experiment [3] is 69.5 nM.

B8: PaB670142 IgG (antibody, V domains shown)
VH: EVQLLESGGGLVQPGGSLRLSCAASGFTFSSYAMNWVRQAPGKGLEWVSTISYSGSLISYADSVKGRFTISRDNSKNTLYLQMNSLRAEDTAVYYCARIHHDPMDVWGQGTLVTVSS
VL: SIELTQPPSVSVSPGQTASITCSGDNLGKKYVQWYQQKPGQSPVLVIYDDSNRPSGIPERFSGSNSGNTATLTISGTQAMDEADYYCQTWDGNPTHGETNVFGGGTKLTVL
notes: as for B1
B8: in experiment [1], the “Fold IC50 (pH 6.0 v pH 7.4)” value worked out at 14 fold. The “Fold IC50 pH 7.4 (Variant v Par0067)” value in experiment [1] is 5.7 fold. For the same molecule, the values for the IC50 in experiment [2] and in experiment [3] were 67.1 nM and 4.8 nM, respectively.

B9: PaB670161 IgG (antibody, V domains shown)
VH: EVQLLESGGGLVQPGGSLRLSCAASGFTFSSYAMNWVRQAPGKGLEWVSTISYSGSLISYADSVKGRFTISRDNSKNTLYLQMNSLRAEDTAVYYCARIHHDPMDVWGQGTLVTVSS
VL: SIELTQPPSVSVSPGQTASITCSGDNLGKKYVQWYQQKPGQSPVLVIYDDSNRPSGIPERFSGSNSGNTATLTISGTQAMDEADYYCHTWDGHHTTGETNHFGGGTKLTVL
notes: as for B1
For the molecule B9, in experiment [1], the “Fold IC50 (pH 6.0 v pH 7.4)” value was found to be 39.6 fold and the “Fold IC50 pH 7.4 (Variant v Par0067)” value came out at 57.4 fold. Further, in experiment [2], the IC50 worked out at 1900 nM. Moreover, in experiment [3], the IC50 came to 47.9 nM.

B10: PaB670152 IgG (antibody, V domains shown)
VH: EVQLLESGGGLVQPGGSLRLSCAASGFTFSSYAMNWVRQAPGKGLEWVSTISYSGSLISYADSVKGRFTISRDNSKNTLYLQMNSLRAEDTAVYYCARIHHDPMDVWGQGTLVTVSS
VL: SIELTQPPSVSVSPGQTASITCSGDNLGKKYVQWYQQKPGQSPVLVIYDDSNRPSGIPERFSGSNSGNTATLTISGTQAMDEADYYCHTWDHHHTTGEHNVFGGGTKLTVL
notes: as for B1
For the molecule B10, in experiment [1], the “Fold IC50 (pH 6.0 v pH 7.4)” value came out at 15.1 fold and the “Fold IC50 pH 7.4 (Variant v Par0067)” value was determined as 526 fold. The IC50 in experiment [2] came to 6600 nM. Also, the IC50 in experiment [3] worked out at 439 nM.

B11: PaB670157 IgG (antibody, V domains shown)
VH: EVQLLESGGGLVQPGGSLRLSCAASGFTFSSYAMNWVRQAPGKGLEWVSTISYSGSLISYADSVKGRFTISRDNSKNTLYLQMNSLRAEDTAVYYCARIHHDPMDVWGQGTLVTVSS
VL: SIELTQPPSVSVSPGQTASITCSGDNLGKKYVQWYQQKPGQSPVLVIYDDSNRPSGIPERFSGSNSGNTATLTISGTQAMDEADYYCQTWDGHHHTGETNHFGGGTKLTVL
notes: as for B1
B11: the “Fold IC50 (pH 6.0 v pH 7.4)” value in experiment [1] is 59 fold. Also, the “Fold IC50 pH 7.4 (Variant v Par0067)” value in experiment [1] stood at 18.9 fold. The IC50 in experiment [2] was found to be 932 nM; in experiment [3], 15.8 nM.

B12: PaB670144 IgG (antibody, V domains shown)
VH: EVQLLESGGGLVQPGGSLRLSCAASGFTFSSYAMNWVRQAPGKGLEWVSTISYHGHHISYADSHHHRFTISRDNSKNTLYLQMNSLRAEDTAVYYCARINHDPMDVWGQGTLVTVSS
VL: SIELTQPPSVSVSPGQTASITCSGDNLGKKYVQWYQQKPGQSPVLVIYDDSNRPSGIPERFSGSNSGNTATLTISGTQAMDEADYYCQTWDGNPTHGETNVFGGGTKLTVL
notes: as for B1
For the molecule B12, the “Fold IC50 (pH 6.0 v pH 7.4)” value in experiment [1] worked out at 19.5 fold. Further, the “Fold IC50 pH 7.4 (Variant v Par0067)” value in experiment [1] worked out at 34.7 fold. Further, the IC50 is 565 nM in experiment [2] and 29 nM in experiment [3].

B13: PaB670143 IgG (antibody, V domains shown)
VH: EVQLLESGGGLVQPGGSLRLSCAASGFTFSSYAMNWVRQAPGKGLEWVSTISYHGHHISYADSHHHRFTISRDNSKNTLYLQMNSLRAEDTAVYYCARINNDPMDVWGQGTLVTVSS
VL: SIELTQPPSVSVSPGQTASITCSGDNLGKKYVQWYQQKPGQSPVLVIYDDSNRPSGIPERFSGSNSGNTATLTISGTQAMDEADYYCQTWDGNPTHGETNVFGGGTKLTVL
notes: as for B1
Turning to B13, in experiment [1], the “Fold IC50 (pH 6.0 v pH 7.4)” value was found to be 11.8 fold and the “Fold IC50 pH 7.4 (Variant v Par0067)” value worked out at 4 fold. Also, the IC50 in experiment [2] came to 40 nM. The IC50 in experiment [3] was determined as 3.4 nM.

B14: PaB670158 IgG (antibody, V domains shown)
VH: EVQLLESGGGLVQPGGSLRLSCAASGFTFSSYAMNWVRQAPGKGLEWVSTISYHGHHISYADSHHHRFTISRDNSKNTLYLQMNSLRAEDTAVYYCARINNDPMDVWGQGTLVTVSS
VL: SIELTQPPSVSVSPGQTASITCSGDNLGKKYVQWYQQKPGQSPVLVIYDDSNRPSGIPERFSGSNSGNTATLTISGTQAMDEADYYCQTWDGHHHTGETNHFGGGTKLTVL
notes: as for B1
Take B14: in experiment [1], the “Fold IC50 (pH 6.0 v pH 7.4)” value was found to be 69.8 fold and the “Fold IC50 pH 7.4 (Variant v Par0067)” value stood at 8.2 fold. Further, the IC50 in experiment [2] is 477 nM. Further, in experiment [3], the IC50 stood at 6.8 nM.
